From publication PMC11842806, “Molecular basis of foreign DNA recognition by BREX anti-phage immunity system” (Nature Communications, 2025)
Substitutions are numbered along the chain they refer to. Names may count otherwise.

How the values were obtained:
[1] = biological target: T1, BrxX:Ocr (BrxX2:Ocr2) (Escherichia coli, UniProt P0DUF9); assay: cryoEM structure ([…] A); type: binding; conditions: Ocr bound, no DNA, Mg2+, CHAPSO, pH 7.5; site: methyltransferase domain pocket; SAM modelled from the DNA-bound structure
T1 construct: gene pglX; full-length BrxX with N-terminal His6 kept plus T7 Ocr with N-His-TEV kept; both expressed in E. coli BW25113; BrxX2:Ocr2 complex; with Protein Ocr (Escherichia phage T7)
T1 sequence (P0DUF9 1-1205): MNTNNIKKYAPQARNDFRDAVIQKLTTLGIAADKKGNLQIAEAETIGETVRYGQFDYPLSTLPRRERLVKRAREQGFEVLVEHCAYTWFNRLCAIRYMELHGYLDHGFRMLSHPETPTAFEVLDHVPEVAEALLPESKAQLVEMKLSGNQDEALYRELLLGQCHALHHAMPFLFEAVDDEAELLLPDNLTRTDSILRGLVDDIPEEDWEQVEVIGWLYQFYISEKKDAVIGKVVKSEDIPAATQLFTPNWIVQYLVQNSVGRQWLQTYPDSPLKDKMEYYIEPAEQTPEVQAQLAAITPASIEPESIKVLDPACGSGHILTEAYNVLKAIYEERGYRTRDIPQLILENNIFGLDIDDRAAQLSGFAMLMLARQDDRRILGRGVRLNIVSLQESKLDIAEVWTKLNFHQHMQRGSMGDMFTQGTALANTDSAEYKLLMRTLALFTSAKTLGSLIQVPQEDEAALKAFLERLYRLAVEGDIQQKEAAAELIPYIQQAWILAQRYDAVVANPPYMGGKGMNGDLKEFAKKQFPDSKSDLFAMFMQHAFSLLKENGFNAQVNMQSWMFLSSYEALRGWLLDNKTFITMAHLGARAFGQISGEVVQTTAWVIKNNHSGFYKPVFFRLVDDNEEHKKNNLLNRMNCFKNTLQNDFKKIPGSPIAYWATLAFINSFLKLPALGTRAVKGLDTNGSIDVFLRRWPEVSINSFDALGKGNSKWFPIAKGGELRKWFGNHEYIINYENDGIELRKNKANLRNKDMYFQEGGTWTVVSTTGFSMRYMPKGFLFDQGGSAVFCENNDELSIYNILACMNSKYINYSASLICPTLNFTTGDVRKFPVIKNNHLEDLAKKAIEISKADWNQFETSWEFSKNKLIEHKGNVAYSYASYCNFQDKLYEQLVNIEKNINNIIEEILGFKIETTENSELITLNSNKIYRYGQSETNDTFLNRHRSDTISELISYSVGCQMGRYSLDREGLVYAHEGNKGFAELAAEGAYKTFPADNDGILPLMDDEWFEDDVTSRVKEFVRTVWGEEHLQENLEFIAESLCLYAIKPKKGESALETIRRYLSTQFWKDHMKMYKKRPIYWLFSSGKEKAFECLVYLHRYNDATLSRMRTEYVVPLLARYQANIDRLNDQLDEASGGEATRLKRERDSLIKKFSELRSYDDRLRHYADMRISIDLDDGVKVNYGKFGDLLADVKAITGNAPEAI
T1 sequence (P03775 1-117 partner): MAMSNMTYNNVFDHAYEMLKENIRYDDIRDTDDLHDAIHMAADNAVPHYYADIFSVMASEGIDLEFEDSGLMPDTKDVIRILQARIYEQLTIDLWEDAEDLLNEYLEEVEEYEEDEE

[2] = biological target: T2, BrxA (Escherichia coli HS, UniProt P0DUF6 1-213); assay: EMSA; EMSA: 20 nM Cy5-DNA, 0.5x TBE pH 8.0, 35 mM NaCl, 5% glycerol, +/-0.5 mM SAM or SAH, 30 min, room temperature; BLI: 20 mM Tris-HCl pH 8.0, 100 mM NaCl, 0.05 mg/mL BSA, 0.02% Tween-20, +/-0.5 mM SAM, 30 C; conditions: protein: recombinant; tags: N-His6; label: 5'-Cy5 on strand 1; blunt
T2 sequence: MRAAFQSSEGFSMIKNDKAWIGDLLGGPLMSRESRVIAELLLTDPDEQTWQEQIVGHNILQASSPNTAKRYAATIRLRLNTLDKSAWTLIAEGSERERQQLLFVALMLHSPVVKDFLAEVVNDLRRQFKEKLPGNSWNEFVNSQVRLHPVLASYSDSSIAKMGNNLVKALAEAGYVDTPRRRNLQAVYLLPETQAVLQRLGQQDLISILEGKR

[3] = biological target: T3, BrxX (PglX) (Escherichia coli HS, UniProt P0DUF9 1-1205); assay: EMSA; 0.5 mM SAM; EMSA: 20 nM Cy5-DNA, 0.5x TBE pH 8.0, 35 mM NaCl, 5% glycerol, +/-0.5 mM SAM or SAH, 30 min, room temperature; BLI: 20 mM Tris-HCl pH 8.0, 100 mM NaCl, 0.05 mg/mL BSA, 0.02% Tween-20, +/-0.5 mM SAM, 30 C; conditions: protein: recombinant; tags: N-His6; label: 5'-Cy5 on strand 1; blunt
T3 sequence: T1 sequence (P0DUF9 1-1205)

[4] = biological target: T3, BrxX (PglX); assay: EMSA; no cofactor; EMSA: 20 nM Cy5-DNA, 0.5x TBE pH 8.0, 35 mM NaCl, 5% glycerol, +/-0.5 mM SAM or SAH, 30 min, room temperature; BLI: 20 mM Tris-HCl pH 8.0, 100 mM NaCl, 0.05 mg/mL BSA, 0.02% Tween-20, +/-0.5 mM SAM, 30 C; conditions: protein: recombinant; tags: N-His6; label: 5'-Cy5 on strand 1; blunt
[5] = biological target: T3, BrxX (PglX); assay: BLI; SAM; heterogeneous binding, no accurate Kd; EMSA: 20 nM Cy5-DNA, 0.5x TBE pH 8.0, 35 mM NaCl, 5% glycerol, +/-0.5 mM SAM or SAH, 30 min, room temperature; BLI: 20 mM Tris-HCl pH 8.0, 100 mM NaCl, 0.05 mg/mL BSA, 0.02% Tween-20, +/-0.5 mM SAM, 30 C; conditions: protein: recombinant; tags: N-His6; label: 5'-biotin on strand 1; blunt
[6] = biological target: T3, BrxX (PglX); assay: BLI; 1:1 fit, stimulated by SAM; Kd only in figure; EMSA: 20 nM Cy5-DNA, 0.5x TBE pH 8.0, 35 mM NaCl, 5% glycerol, +/-0.5 mM SAM or SAH, 30 min, room temperature; BLI: 20 mM Tris-HCl pH 8.0, 100 mM NaCl, 0.05 mg/mL BSA, 0.02% Tween-20, +/-0.5 mM SAM, 30 C; conditions: protein: recombinant; tags: N-His6; label: 5'-biotin on strand 1; blunt
[7] = biological target: T3, BrxX (PglX); assay: EMSA; non-methylated partner of N9; no cofactor, SAM or SAH; EMSA: 20 nM Cy5-DNA, 0.5x TBE pH 8.0, 35 mM NaCl, 5% glycerol, +/-0.5 mM SAM or SAH, 30 min, room temperature; BLI: 20 mM Tris-HCl pH 8.0, 100 mM NaCl, 0.05 mg/mL BSA, 0.02% Tween-20, +/-0.5 mM SAM, 30 C; conditions: protein: recombinant; tags: N-His6; label: 5'-Cy5 on strand 1; blunt
[8] = biological target: T3, BrxX (PglX); assay: cryoEM structure (2.2 A); SAM, metal modelled as Mg2+; EMSA: 20 nM Cy5-DNA, 0.5x TBE pH 8.0, 35 mM NaCl, 5% glycerol, +/-0.5 mM SAM or SAH, 30 min, room temperature; BLI: 20 mM Tris-HCl pH 8.0, 100 mM NaCl, 0.05 mg/mL BSA, 0.02% Tween-20, +/-0.5 mM SAM, 30 C; conditions: protein: recombinant; tags: N-His6; blunt
[9] = biological target: T3, BrxX (PglX); assay: EMSA; improved binding; with and without 0.5 mM SAM; EMSA: 20 nM Cy5-DNA, 0.5x TBE pH 8.0, 35 mM NaCl, 5% glycerol, +/-0.5 mM SAM or SAH, 30 min, room temperature; BLI: 20 mM Tris-HCl pH 8.0, 100 mM NaCl, 0.05 mg/mL BSA, 0.02% Tween-20, +/-0.5 mM SAM, 30 C; conditions: protein: recombinant; tags: N-His6; label: 5'-Cy5 on strand 1; blunt

C[S+](CC[C@H](N)C(=O)O)C[C@H]1O[C@@H](n2cnc3c(N)ncnc32)[C@H](O)[C@@H]1O (some centres unmarked) [S-adenosyl methionine]
cryoEM structure (2.8 A) [1]: The MTD displayed density for a molecule of SAM

B1: 43 bp, 1 BREX site (dsDNA)
DNA 1: AGTCAGTGGTAAGGTCAGGAATGAGTCAGTTGGCAAGTCAGGA
DNA 2: TCCTGACTTGCCAACTGACTCATTCCTGACCTTACCACTGACT
binding result [2]: binds | Kd [3]: ~60 nM | Kd [4]: ~300 nM

B2: 40 bp BREX, biotin (dsDNA)
DNA 1: TCAGTAGTCAAGTCAGTGGTAAGGTCAGGACAGGAGTCAG
DNA 2: CTGACTCCTGTCCTGACCTTACCACTGACTTGACTACTGA
binding result [5]: binds

B3: 20 bp BREX, biotin (dsDNA)
DNA 1: AGTCAGTGGTAAGGTCAGGA
DNA 2: TCCTGACCTTACCACTGACT
binding result [6]: binds

B4: 40 bp BREX (dsDNA)
DNA 1: B2 DNA 1
DNA 2: B2 DNA 2
binding result [7]: binds

B5: 43 bp scrambled (dsDNA)
DNA 1: AGTCAGTAGTGAGGTCAGGAATGAGTCAGTCTCACTGTCAGGA
DNA 2: TCCTGACAGTGAGACTGACTCATTCCTGACCTCACTACTGACT
binding result [2]: binds | Kd [3]: ~300 nM

B6: 43 bp, 2 BREX sites head-to-tail (H2T) (dsDNA)
DNA 1: B1 DNA 1 with T31G, G33T, C34A, A36G
DNA 2: B1 DNA 2 with T8C, G10T, C11A, A13C
binding result [8]: binds

B7: 50 bp BREX (dsDNA)
DNA 1: AGTCATCAGTAGTCAAGTCAGTGGTAAGGTCAGGACAGGAGTCAGCAGGA
DNA 2: TCCTGCTGACTCCTGTCCTGACCTTACCACTGACTTGACTACTGATGACT
binding result [9]: binds
